Target: SlTAGL1-His (Solanum lycopersicum, UniProt E9JUM2 1-269)
Assay: EMSA; not given; Beyotime EMSA/Gel-Shift kit and Thermo LightShift Chemiluminescent EMSA kit
Settings: protein: recombinant; tags: His (pET28a); chain copies: 2; label: biotin 3'; blunt

Chain of SlTAGL1-His (E9JUM2 entry or part of it): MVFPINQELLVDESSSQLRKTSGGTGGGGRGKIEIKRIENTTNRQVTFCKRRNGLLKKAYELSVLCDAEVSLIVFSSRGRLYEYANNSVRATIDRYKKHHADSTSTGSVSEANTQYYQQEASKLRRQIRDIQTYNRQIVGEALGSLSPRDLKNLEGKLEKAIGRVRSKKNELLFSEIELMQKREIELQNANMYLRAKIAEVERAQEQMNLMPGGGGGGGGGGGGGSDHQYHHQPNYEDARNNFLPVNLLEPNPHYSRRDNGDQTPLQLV

B1: SlPSY1 promoter probe (dsDNA)
DNA 1: GAATTGAGCACTTGGCTTTTGTATATAGCTTCTATGTGTACCAAAATT
DNA 2: AATTTTGGTACACATAGAAGCTATATACAAAAGCCAAGTGCTCAATTC
binding result: binds
